Experimental data taken from patent US10077295B2, “Glycoproteins having lipid mobilizing properties and therapeutic uses thereof” (Aston University, priority 2010, dated 2018).

Experiments:
[1] = test system: skeletal muscle of ob/ob mice; test: Protein synthesis and degradation in skeletal muscle of ZAG-treated ob/ob mice; format: in vivo, mouse; conditions: ob/ob mice treated 5 days
Method: Protein Synthesis and Degradation in Muscle. The method for the determination of protein synthesis and degradation in muscle has been previously described (Smith, K. L. & Tisdale, M. J. Increased protein degradation and decreased protein synthesis in skeletal muscle during cancer cachexia. Br. J. Cancer 67, 680-685 (1993)). […] Protein synthesis was measured by the incorporation of L-[2,6-^3H] phenylalanine (640 MBq) into acid-insoluble material using a 2 h period in which the muscles were incubated at 37° C. in RPMI/640 without phenol red and saturated with O2:CO2 (19:1). Muscles were then rinsed in non-radioactive medium, blotted and homogenised in 2% perchloric acid. The rate of protein synthesis was calculated by dividing the amount of protein-bound radioactivity by the amount of acid soluble radioactivity. Protein degradation was determined by the release of tyrosine from gastrocnemius muscle over a 2 h period in 3 ml of oxygenated Krebs-Henseleit buffer, pH7.4, containing 5 mM glucose and 0.5 mM cycloheximide.

[2] = test system: epididymal adipocytes of male Wistar rats; test: Uptake of 2-deoxy-D-glucose into epididymal adipocytes of ZAG-treated rats; format: in vivo, rat; conditions: rats treated for 10 days
Method: Glucose Uptake into Adipocytyes. Isolated adipocytes (5×10^4) were washed twice in 1 ml Krebs-Ringer bicarbonate buffer, pH 7.2 (KRBS) and further incubated for 10 min at room temperature in 0.5 ml KRBS containing 18.5 MBq 2-[1-^14C] deoxy-D-glucose and non-radioactive 2-deoxy-D-glucose to a final concentration of 0.1 mM. Uptake was terminated by the addition of 1 ml ice-cold glucose-free KRBS, and the cells were washed three times with 1 ml KRBS, lysed by addition of 0.5 ml 1M NaOH and left for at least 1 h at room temperature before the radioactivity was determined by liquid scintillation counting.

[3] = test system: ob/ob mice; test: ob/ob mice treated with ZAG i.v. with or without propanolol; format: in vivo, mouse; conditions: ZAG alone
Method: Animals. […] Male mice (about 20 weeks of age) were grouped into three per cage and kept in an air conditioned room at 22±2° C., with ad libitum feeding of a rat and mouse breeding diet (Special Diet Services, Witham, UK) and tap water. Mice were administered ZAG (50 μg, i.v. in 100 μl PBS) or PBS daily with or without propanolol (40 mgkg^−1, po, daily) and body weight and food and water intake were determined, as well as urinary glucose excretion and body temperature, determined by the use of a rectal thermometer (RS Components, Northants, UK). A glucose tolerance test was performed on day 3. […] Blood samples were removed from the tail vein at 15, 30, 60 and 120 min after glucose administration and used for the measurements of glucose and insulin. At the end of the experiment the animals were terminated by cervical dislocation, tissues removed and rapidly frozen in liquid nitrogen, and maintained at −80° C.
To determine whether ZAG can increase insulin signalling the effect on Glut4 expression was determined.

[4] = test system: β3-AR, β1-AR and β2-AR expression; test: Western blot of β-AR expression in tissues of ob/ob mice after 5 days ZAG; format: in vivo, mouse
Method: Western Blot Analysis. WAT, BAT, heart and gastrocnemius muscle were thawed, washed in PBS, and lysed in Phosphsafe™ Extraction reagent for 5 min at room temperature, followed by sonication at 4° C. The supernatant formed by centrifugation at 18,000 g for 5 min at 4° C. was used for Western blotting. Cytosolic protein (5 μg for UCP's and 20 μg for β-AR) was resolved on 12% sodium dodecylsulphate polyacrylamide gels by electrophoresis at 180V for about 1 h and transferred on to 0.45 μm nitrocellulose membranes, which had been blocked with 5% (w/v) non-fat dried milk (Marvel) in Tris-buffered saline, pH 7.5, at 4° C. overnight. Prior to adding the primary antibodies membranes were washed for 15 min in 0.1% Tween 20-buffered saline. Both primary and secondary antibodies were used at a dilution of 1:1000. Incubation was for 1 h at room temperature and development was by ECL. Blots were scanned by a densitometer to quantify differences.

[5] = test system: gastrocnemius muscle of ob/ob mice; test: Proteasome activity and Western blots in gastrocnemius muscle of ZAG-treated ob/ob mice; format: in vivo, mouse
Method: Measurement of Proteasome and Caspase Activity. […] Gastrocnemius muscle was homogenised in 20 mM Tris, pH7.5, 2 mM ATP, 5 mM MgCl2 and 50 mM DTT at 4° C., sonicated and centrifuged at 18,000 g for 10 min at 4° C. to pellet insoluble material, and the resulting supernatant was used to measure ‘chymotrypsin-like’ enzyme activity in the presence or absence of the proteasome inhibitor lactacystin (10 μM). Only lactacystin suppressible activity was considered as true proteasome activity. The activity of caspase-3 was determined by the release of AMC from AcAsp.Gly.Val.Asp.AMC (SEQ ID NO: 3), and the activity of caspase-8 was determined by the release of 7-amino-4-trifluromethylcoumarin (AFC) from the specific substrate Z-Ile Glu Phe Thr Asp-AFC (SEQ ID NO: 4), using the supernatant from above (50 μg protein), and either the caspase-3 or -8 substrate (10 μM) for 1 h at 37° C., in the presence or absence of the caspase-3 (AcAspGluValAsp-CHO) (SEQ ID NO: 5) or caspase-8 (Ile Glu Phe Thr Asp-CHO) (SEQ ID NO: 6) inhibitors (100 μM). The increase in fluorescence due to […] was determined as above, while the increase in fluorescence due to AFC was measured with an excitation wavelength of 400 nm and an emission wavelength of 505 nm. The difference in values in the absence and presence of the caspase inhibitors was a measure of activity.
Western Blot Analysis. Freshly excised gastrocnemius muscles were washed in PBS and lysed in PHOSPHOSAFE™ Extraction Reagent for 5 min at room temperature followed by sonication at 4° C. The lysate was cleared by centrifugation at 18,000 g for 5 min at 4° C. and samples of cytosolic protein (5 μg) were resolved on 12% sodium dodecyl sulfate-polyacrylamide gel electrophoresis at 180V for approximately 1 h. This was followed by transference to 0.45 μm nitrocellulose membranes, which were then blocked with 5% Marvel in Tris-buffered saline, pH 7.5, at 4° C. overnight. Both primary and secondary antibodies were used at a dilution of 1:1000 except anti-myosin (1:250). Incubation was for 1 h at room temperature, and development was by ECL. Blots were scanned by a densitometer to quantify differences.

B1: ZAG: recombinant full length human zinc-α2-glycoprotein (SEQ ID NO: 1) secreted by transfected HEK293F cells; lipid mobilizing factor (protein, listed as Homo sapiens)
chain: QENQDGRYSLTYIYTGLSKHVEDVPAFQALGSLNDLQFFRYNSKDRKSQPMGLWRQVEGMEDWKEDSQLQKAREDMETLKDIVEYYNDSNGSHVLQGRFGCEIENNRSSGAFWKYYYDGKDYIEFNKEIPAWVPFDPAAQITKQKWEAEPVYVQRAKAYLEEECPATLRKYLKYSKNILDRQDPPSVVVTSHQAPGEKKKLKCLAYDFYPGKIDVHWTRAGQVQEPELRGDVLHNGNGTYQSWVVVAVPPQDTAPYSCHVQHSSLAQPLVVPWEAS
decrease in protein degradation [1]: 60% | protein synthesis in soleus muscle [1]: over a two-fold increase | uptake of 2-deoxyglucose into epididymal adipocytes [2]: significant increase | effect on liver lipids [3]: no effect on liver lipids | expression of β1-AR or β2-AR in gastrocnemius muscle or WAT [4]: no change in expression | increase in β3-AR expression in BAT [4]: 89% | increase in β3-AR expression in WAT [4]: 85% | β3-AR expression in gastrocnemius muscle [4]: two-fold increase | expression of 20S proteasome α-subunits and p42 ([5]; gastrocnemius muscle): decreased expression | phosphorylated forms of PKR and eIF2α ([5]; gastrocnemius muscle): reduction in the level of phosphorylated forms | proteasome 'chymotrypsin-like' enzyme activity ([5]; gastrocnemius muscle): decreased activity | myosin levels ([5]; skeletal muscle): increased
